Test results reported in the Human Domainome abundance scans (Beltran et al. 2025).

B1: 1-phosphatidylinositol 4,5-bisphosphate phosphodiesterase gamma-2, residues 772 to 827; numbered along this chain, P16885 (parent)
chain: RTVKALYDYKAKRSDELSFCRGALIHNVSKEPGGWWKGDYGTRIQQYFPSNYVEDI

Variants of: B1
Assay: abundance fitness (aPCA) (normalised: wild type 0, dead -1); higher = more abundant; growth selection in yeast, the domain comes from the species named
Conditions: Homo sapiens

Abundance fitness of substitutions, site by site:
C20: S 0.008; K 0.002; P 0.209; M -0.063; L -0.116; N -0.037; D -0.095; R 0.11; A 0.004; W -0.446; T -0.012; G -0.059; Q -0.143; I -0.216; V 0.017; F -0.17; H 0.151
N27: E -0.164; I -0.748; G -0.654; C -0.722; H -0.486; K -0.625; S -0.473; R -0.549; L -0.974; V -0.958; M -0.695; A -0.56; Q -0.13; F -1.05; W -0.956
I25: S -1; R -0.976; V -0.481; W -0.723; F -0.598; A -0.741; Q -0.921; L -0.386
F19: K -0.558; L -0.779; D -0.685; G -0.604; R -0.966; E -0.711; C -0.64; A -0.758; P -0.536; Q -0.721; V -0.886
G34: M -0.11; E -0.06; Y -0.164; W -0.445; C -0.284; S -0.129; T 0.014; K 0.024; L -0.083; P 0.01; H -0.101; N 0.138; R -0.06; I -0.143; V -0.032; D -0.085; Q -0.094; A -0.074
G33: C -0.108; F -0.203; T -0.421; A -0.547; W -0.258; Q -0.556; P -0.699; E -0.274; N -0.102; K -0.781; L -0.408; Y -0.293; V -0.82; D -0.168; R -0.434; S -0.114; H -0.277
S29: F 0.151
E16: L -0.486; S -0.618; G -0.354; K -0.822; H -0.201; V -0.612; T -0.442; A -0.456; Q -0.168; R -0.528; W -1.02; M -0.633
E31: V -0.099; M -0.009; K -0.135; D -0.22; C -0.069; N -0.169; L -0.015; F 0.016; T 0.141; Q -0.071; A -0.1; G 0.065; H -0.265; P -0.291; W 0.036; Y -0.05; S 0.002; I -0.174
K37: C -0.318; D -0.486; Q -0.407; T -0.32; V -0.213; I -0.301; R -0.091; P -0.617; M -0.548; E -0.757; A -0.622; G -0.887; F -0.371; L -0.276
L17: A -0.922; W -0.884; I -0.154; T -0.788; R -0.945; Q -0.903; E -0.81; G -1; M 0.012; F -0.492; V -0.41
D15: H -0.362; Y -0.254; Q -0.214; C -0.165; F -0.124; A -0.182; R -0.427; V -0.041; I -0.027; N -0.048; P -0.879; S 0.006; K -0.503; E 0.018; L -0.37; M 0.185; G -0.047; T 0.178
L24: N -0.212; R -0.299; W -0.359; P -0.818; D -0.781; M -0.207; G -0.837
